Reference: US20250382376A1 (FUDAN UNIVERSITY, published 2025)

T1: CD73 on the surface of human cells (human, UniProt P21589 27-549)
T1 construct: whole, on cells; The cell line of each value is named under assay or readout; also called CD73 on the surface of tumor cells; CD73 enzyme on the surface of MDA-MB-231 cells
T1 sequence (looked up): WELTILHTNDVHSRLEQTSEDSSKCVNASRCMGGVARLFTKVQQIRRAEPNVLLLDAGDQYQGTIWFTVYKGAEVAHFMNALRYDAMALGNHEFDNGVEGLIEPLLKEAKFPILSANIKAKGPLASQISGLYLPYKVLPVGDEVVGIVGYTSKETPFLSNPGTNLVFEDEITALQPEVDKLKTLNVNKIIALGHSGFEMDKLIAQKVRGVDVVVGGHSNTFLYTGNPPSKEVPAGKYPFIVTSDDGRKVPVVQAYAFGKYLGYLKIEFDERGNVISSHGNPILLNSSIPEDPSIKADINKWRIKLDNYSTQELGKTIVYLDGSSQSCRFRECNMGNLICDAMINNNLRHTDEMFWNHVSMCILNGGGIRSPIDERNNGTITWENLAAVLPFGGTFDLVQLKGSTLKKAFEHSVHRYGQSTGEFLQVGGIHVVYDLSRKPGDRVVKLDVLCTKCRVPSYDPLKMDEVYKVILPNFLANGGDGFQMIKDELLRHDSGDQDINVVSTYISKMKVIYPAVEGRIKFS

T2: extracellular domain of human CD73 protein, C-terminus polyhistidine-tagged (human, UniProt P21589 27-547)
T2 construct: also the immunogen; also called CD73-ECD; human CD73-ECD
T2 sequence: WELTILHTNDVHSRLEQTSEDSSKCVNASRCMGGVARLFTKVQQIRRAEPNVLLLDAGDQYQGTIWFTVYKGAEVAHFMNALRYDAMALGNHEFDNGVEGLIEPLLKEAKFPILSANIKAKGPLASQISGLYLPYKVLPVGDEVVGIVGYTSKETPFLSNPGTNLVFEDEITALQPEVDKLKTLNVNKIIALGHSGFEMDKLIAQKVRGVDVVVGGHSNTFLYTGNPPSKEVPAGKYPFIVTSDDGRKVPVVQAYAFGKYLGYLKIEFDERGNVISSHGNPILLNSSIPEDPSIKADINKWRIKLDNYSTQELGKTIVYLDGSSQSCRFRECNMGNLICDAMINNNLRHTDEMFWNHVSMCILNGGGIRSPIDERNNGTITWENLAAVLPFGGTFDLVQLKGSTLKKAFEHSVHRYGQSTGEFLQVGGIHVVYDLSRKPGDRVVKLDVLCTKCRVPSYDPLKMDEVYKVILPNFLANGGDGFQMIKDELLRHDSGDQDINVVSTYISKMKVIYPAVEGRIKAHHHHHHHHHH

B1: chimeric nanobody 3-D7 (Fc fusion)
VHH: QRQLVESGGGLVQPGGSLRLSCAASGFLLDYYVIGWFRQAPGKEREGVSCISGSDRSTYYADSVKGRFTISRDNAKNTVYLQMNSLKPEDTAVYFCAADPSPVTVQAMCLPRFPVPYWGQGTQVTVST
notes: Human-alpaca chimeric antibody (VHH on hIgG1 Fc); Only the VHH is tied to the tested molecule; 37-39 exist for 3-D7-FC1/FC2/FC3; also called original antibody 3-D7
B2: chimeric nanobody 5-E11 (Fc fusion)
VHH: ALQLVESGGGLVQPGGSLRLSCEVSGFTLDYYNIGWFRQAPGKEREGVSCSSNSGGSTYYADSVKGRFTISRDNAKNTVYLQMNSLKPEDTGVYYCAAYRGWHPSLDARVYDYWGQGTEVTVSS
notes: Human-alpaca chimeric antibody (VHH on hIgG1 Fc); Only the VHH is tied to the tested molecule; also called original antibody 5-E11
B3: chimeric nanobody 4-D04 (Fc fusion)
VHH: QLQLVESGGGLVQPGGSLRLSCAASGFTLDYYNIGWFRQAPGKEREGVSCISSSEGSTYYADSVKGRFTISRDNAKNTVYLQMNSLKPEDTAVYYCAADRYYYCSLHVSQYDYWGQGTLVTVSS
notes: Human-alpaca chimeric antibody
B4: chimeric nanobody 4-B02 (Fc fusion)
VHH: EVQLVESGGGLVQPGGSLRLSCAASGFPLDYYSIGWFRQAPGKEREGVSCIGSSDGSTYYADSVKGRFTISRDNAENTVWLQMNSLKPEDTAVYYCAALKYYYCSGHEAIYDYWGQGTQVTVSG
notes: as for B3

These binders were tested against T1, CD73 on the surface of human cells (assay: flow cytometry on PC9 cells).
Experimental: (§1) 100 μL of the test antibodies diluted from 10 μg/mL to 0.016 μg/mL in a 5-fold gradient were used as the primary antibodies, and were mixed with 1×10⁵ tumor cells suspended in 100 μL RPMI-1640 serum-free medium to make a final concentration of 5 μg/mL diluted to 0.008 μg/mL, and then incubated at 4° C. for 1 h. The cells were washed twice with PBS to remove unbound primary antibodies, and then the target cells were incubated with 200 μLPE-labeled secondary antibody at 2 μg/mL at 4° C. for 30 min. The cells were washed twice with PBS to remove unbound secondary antibodies, and finally the cells were resuspended in 200 μL PBS. The binding affinity of the test antibodies to CD73 on the surface of the corresponding cells was measured by flow cytometry.
Work on B1 yielded an EC50 of 0.133 µg/mL. Work on B2 yielded an EC50 of 0.041 µg/mL. B3 gave an EC50 of 0.057 µg/mL. B4 gave an EC50 of 0.044 µg/mL.

What follows are binders tested against T1, CD73 on the surface of human cells (assay: flow cytometry on NCI-H1299 cells).
With B2 the EC50 was 0.068 µg/mL. For B3, the EC50 was 0.08 µg/mL. For B4, the EC50 was 0.078 µg/mL.

These binders were tested against T1, CD73 on the surface of human cells (assay: flow cytometry on NCI-H1373 cells).
Experimental: as §1
B1 showed an EC50 of 0.227 µg/mL. In the case of B2, the EC50 is reported as 0.135 µg/mL. In the case of B3, the EC50 is reported as 0.163 µg/mL. B4 showed an EC50 of 0.112 µg/mL.

The binders below were run against T1, CD73 on the surface of human cells (assay: flow cytometry on NCI-H1975 cells).
Experimental: as §1
Binder B1 has an EC50 of 0.106 µg/mL. Work on B2 yielded an EC50 of 0.057 µg/mL. With B3 the EC50 was 0.068 µg/mL. B4 showed an EC50 of 0.055 µg/mL.

The binders below were run against T2, extracellular domain of human CD73 … (assay: ELISA, coated CD73-ECD, protein A-HRP).
Experimental: (§2) The CD73 protein extracellular region (CD73-ECD) was diluted to 1 μg/mL using the coating solution, and an ELISA plate was coated at 100 μL/well at 4° C. overnight. Excess antigens were washed away, and the plate was blocked with 1% BSA at room temperature for 2 hours. Then, 5-fold gradient dilutions of each monoclonal antibody were added at 100 μL/well and incubated at room temperature for 1 hour. Unbound antibodies were washed away, and an appropriate concentration of Staphylococcal protein A labeled with horseradish peroxidase was added at 100 μL/well and incubated at room temperature for 0.5 hours. Unbound secondary antibodies were washed away, and TMB color development solution was added to react for about 15 minutes. 1M HCL was added at 50 µL/well to terminate the color development reaction, and then the absorbance was measured at 450 nm and the data was analyzed.
Binder B1 has an EC50 of 0.0135 µg/mL. Work on B2 yielded an EC50 of 0.00872 µg/mL. In the case of B3, the EC50 is reported as 0.00267 µg/mL. Binder B4 has an EC50 of 0.00303 µg/mL.

What follows are binders tested against T1, CD73 on the surface of human cells (assay: Flow cytometry on HCC44 cells, PE-labelled secondary antibody).
Experimental: as §1
With B1 the “Max MFI” value was 135000 MFI. With B2 the “Max MFI” value was 130000 MFI. In the case of B3, the “Max MFI” value is reported as 145000 MFI. In the case of B4, the “Max MFI” value is reported as 136000 MFI.

These binders were tested against T1, CD73 on the surface of human cells (assay: Flow cytometry on PC9 cells, PE-labelled secondary antibody [panel A]).
Experimental: as §1
B1 was tested, and the “Max MFI” value was 58800 MFI. For B2, the “Max MFI” value was 58900 MFI. With B3 the “Max MFI” value was 65000 MFI. For B4, the “Max MFI” value was 61600 MFI.

What follows are binders tested against T1, CD73 on the surface of human cells (assay: Flow cytometry on SW1573 cells, PE-labelled secondary antibody [panel A]).
Experimental: as §1
For B1, the “Max MFI” value was 71000 MFI. With B2 the “Max MFI” value was 69600 MFI. In the case of B3, the “Max MFI” value is reported as 71300 MFI. For B4, the “Max MFI” value was 73800 MFI.

These binders were tested against T1, CD73 on the surface of human cells (assay: Flow cytometry on NCI-H1299 cells, PE-labelled secondary antibody [panel B]).
Experimental: as §1
For B1, the “Max MFI” value was 155000 MFI. In the case of B2, the “Max MFI” value is reported as 157000 MFI. With B3 the “Max MFI” value was 168000 MFI. B4 was tested, and the “Max MFI” value was 170000 MFI.

Each binder was assayed against T1, CD73 on the surface of human cells (assay: Flow cytometry on NCI-H1975 cells, PE-labelled secondary antibody [panel B]).
Experimental: as §1
For B1, the “Max MFI” value was 80900 MFI. B2 was tested, and the “Max MFI” value was 79700 MFI. For B3, the “Max MFI” value was 86100 MFI. B4 was tested, and the “Max MFI” value was 82700 MFI.

Each binder was assayed against T2, extracellular domain of human CD73 … (assay: SPR as the filing names it (ForteBio OCTET R2); antibody on Protein A sensor, CD73-ECD in solution, 25 C).
Experimental: Surface plasmon resonance (SPR) assay: Protein A sensor was used to immobilize the antibodies, with an immobilization height of about 1.5 nM. […] Affinity detection: equilibrium for 60 s, binding for 180 s, dissociation for 180 s, at a detection temperature of 25° C. Kinetic characterization analysis was performed using the ForteBio OCTET R2 system.
B1 was tested, and the Kd was 2 nM. B2 was tested, and the Kd was 0.826 nM. With B3 the Kd was 0.919 nM. Work on B4 yielded a Kd of 0.795 nM.

These binders were tested against T2, extracellular domain of human CD73 … (assay: ELISA on coated human CD73-ECD, HRP-protein A detection; fitted upper plateau of the OD450 curve).
Set-up: unit not given here
Experimental: as §2
With B1 the “Top (%)” value was 1.79. For B2, the “Top (%)” value was 2.28. For B3, the “Top (%)” value was 2.08. In the case of B4, the “Top (%)” value is reported as 2.
